According to the supplement of paper PMC11811203:

B1: THAP1; numbered along this chain (parent)
chain: MVQSCSAYGCKNRYDKDKPVSFHKFPLTRPSLCKEWEAAVRRKNFKPTKYSSICSEHFTPDCFKRECNNKLLKENAVPTIFLCTEPHDKKEDLLEPQEQLPPPPLPPPVSQVDAAIGLLMPPLQTPVNLSVFCDHNYTVEDTMHQRKRIHQLEQQVEKLRKKLKTAQQRCRRQERQLEKLKEVVHFQKEKDDVSERGYVILPNDYFEIVEVPA

Variants of: B1
Experiment: THAP1 transcriptional activity (GFP+/GFP- enrichment relative to wild-type constructs) (ratio to WT); higher = more THAP1 activity (PSMB5 reporter activation)
Settings: with PSMB5 promoter-GFP reporter
Summary of the method: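 Variants were counted by Illumina sequencing of genomic DNA amplicons from BFP+ cells sorted into GFP-bright and GFP-dim bins five days after lentiviral transduction, in duplicate at MOI ~0.3. The library changed each of residues 2–213 of human THAP1 to all 20 amino acids and was introduced into THAP1-knockout HEK-293T cells with mClover3 knocked in at endogenous PSMB5. Activity equals the replicate-mean bright/dim read fold change over the mean of wild-type synonymous constructs.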

THAP1 transcriptional activity of substitutions, site by site:
K64: V 0.215; D 0.151; N 0.237; M 0.112; R 1.06; Q 0.25; W 0.0652; I 0.159; P 0.104; C 0.0975; E 0.188; L 0.145; T 0.115; A 0.0797; H 0.0785; G 0.219; F 0.102; Y 0.0778; S 0.123
N68: T 0.179; K 0.162; V 0.125; R 0.161; Q 0.193; G 0.127; D 0.0906; F 0.0942; I 0.15; S 0.192; M 0.141; C 0.157; L 0.131; H 0.2; Y 0.125; A 0.103; P 0.161; W 0.089
F81: Y 0.214; M 0.341; C 0.223; G 0.402; H 0.525; I 0.536; R 0.298; E 0.405; A 0.367; T 0.207; L 0.224; S 0.443; V 0.312; N 0.75; P 0.275; Q 0.206; D 0.125
T79: S 0.71; C 0.183; D 0.228; Y 0.151; P 0.18; G 0.301; E 0.254; A 0.438; K 0.278; H 0.293; M 0.254; L 0.628; N 0.622; I 0.861; V 0.326; Q 0.296; W 0.281
L82: G 1.31; C 0.521; A 1.84; D 1.34; E 1.33
A76: P 0.384; T 0.18; E 0.444; C 0.862; D 0.209; G 0.221; V 0.435; F 0.307; K 0.428; Y 0.191; N 0.121; W 0.386; Q 0.234; I 0.165; L 0.476; M 0.215
K70: N 0.476; D 0.0985; Y 0.12; C 0.313; H 0.709; V 0.479; I 0.33; S 0.325; G 0.0856; M 0.175; W 0.129; Q 0.437; A 0.434; F 0.163; L 0.121; P 0.178; T 0.397; R 2.14; E 0.134
N69: W 0.0798; R 0.216; C 0.181; I 0.672; V 0.399; H 0.344; K 0.133; G 0.122; A 0.111; S 0.193; E 0.0951; Y 0.261; M 0.597; Q 0.143; T 0.226; F 0.109; L 0.301; D 0.131; P 0.092
L72: F 0.177; H 0.134; W 0.18; G 0.189; Y 0.172; R 0.0764; Q 0.163; N 0.129; T 0.0921; E 0.322; V 0.172; C 0.148; P 0.221; K 0.0937; S 0.092; M 0.106; D 0.169; I 0.173; A 0.17
R65: H 0.327; N 0.596; Y 0.369; M 0.623; S 0.735; T 0.797; I 0.626; C 0.173; P 0.671; F 0.208; W 0.212; Q 0.982; A 0.63; V 0.559; D 0.388; L 1.04; E 0.629; G 0.424
I80: F 0.463; S 0.272; Q 0.628; C 0.239; G 0.55; R 0.963; P 0.235; H 0.323; N 0.429; W 0.268; M 0.484; D 0.29; E 0.459; L 0.606; V 0.963; A 0.266; T 0.298
N75: G 1.42; A 0.373; E 0.468; T 0.612; V 0.214; M 0.658; C 0.38; R 0.829; H 0.567; Y 0.177; F 0.875; Q 0.684; D 0.507; W 0.844; K 0.45; I 0.302; P 0.241; L 0.286
P78: R 0.156; E 0.463; N 0.269; M 0.495; C 0.419; A 0.526; F 0.267; T 0.283; Q 0.241; I 0.211; D 0.183; L 0.161; G 0.102; Y 0.488; V 0.191
L71: Y 0.309; M 0.941; G 0.187; V 1.47; I 1.07; N 0.266; P 0.113; C 1.42; F 0.361; Q 0.432; R 0.39; H 0.403; T 0.52; S 0.483; A 0.407; E 0.221; W 0.259; K 0.533; D 0.74
E74: D 0.59; L 0.384; V 0.618; R 0.858; A 0.445; C 0.522; M 0.293; Q 1.17; G 0.501; F 1.09; H 0.512; Y 0.453; I 0.327; N 0.686; S 0.604; P 0.952; T 0.334; W 0.598
V77: N 0.195; M 0.439; R 0.539; C 0.434; A 0.343; D 0.295; Q 0.318; H 0.287; L 0.547; Y 0.279; F 0.325; G 0.281; W 0.267; S 0.41; E 0.259
C67: A 0.639; N 0.17; Y 0.2; L 0.481; G 0.127; E 0.119; V 0.777; H 0.198; M 0.594; R 0.502; S 0.964; T 1.19; I 0.198; K 0.472; F 0.147; D 0.135; Q 0.239; P 0.13; W 0.116
F63: W 0.473; S 0.0787; T 0.128; V 0.082; P 0.103; R 0.084; N 0.14; Q 0.0896; Y 0.623; M 0.089; L 0.0863
K73: M 0.543; N 0.522; S 0.154; V 0.644; P 0.102; Y 0.291; E 0.261; D 0.191; G 0.194; I 0.142; H 0.598; T 0.514; L 0.33; R 0.622; C 0.395; F 0.19; W 0.212; Q 0.273; A 0.31
E66: Y 0.777; V 0.638; F 0.996; M 0.558; L 0.436; K 0.629; N 2.46; A 1.36; Q 0.814; I 0.457; C 1.21; S 1.14; T 1.3; R 0.539; W 1.25; P 0.346
